Data set [1] concerns the target T1, 8-oxoguanine DNA glycosylase (OGG1) (UniProt O15527 1-345). Briefly: capillary electrophoresis (NECEEM); 0.2 uM aptamer, 5.0 uM OGG1, n=3; CE in fused-silica capillary (75 um i.d. x 50.2 cm, 40 cm effective); borate reagents listed; 15 min incubation stated for the selection; buffer composition, pH and temperature not in the material. The conditions noted are these: protein: commercial; (library is FAM labelled).

The target of data set [2] is T1, 8-oxoguanine DNA glycosylase (OGG1). Briefly: capillary electrophoresis (NECEEM); 0.2 uM aptamer, 5.0 uM OGG1, n=3; abstract gives range 1.71-2.64 uM for the top three candidates; CE in fused-silica capillary (75 um i.d. x 50.2 cm, 40 cm effective); borate reagents listed; 15 min incubation stated for the selection; buffer composition, pH and temperature not in the material. The conditions noted are these: protein: commercial; (library is FAM labelled).

T1 sequence (O15527 whole entry, the tested form may be a part): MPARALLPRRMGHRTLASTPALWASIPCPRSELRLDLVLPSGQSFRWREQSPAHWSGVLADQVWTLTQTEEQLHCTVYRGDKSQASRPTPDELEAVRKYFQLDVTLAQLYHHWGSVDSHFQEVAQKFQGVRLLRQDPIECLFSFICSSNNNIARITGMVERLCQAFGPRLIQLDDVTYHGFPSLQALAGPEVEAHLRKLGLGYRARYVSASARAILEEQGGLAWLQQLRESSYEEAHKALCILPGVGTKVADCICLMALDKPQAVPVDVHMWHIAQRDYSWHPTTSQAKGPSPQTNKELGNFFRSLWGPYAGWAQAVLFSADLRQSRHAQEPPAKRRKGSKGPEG

B1: OGG1-Apt 2 (ssDNA)
DNA: AGCAGCACAGAGGTCAGATGTTGATGGCAGGTATTGCTAGGTCTACATGGAACTTGTTAACCTATGCGTGCTACCGTGAA
In general, Kd refers to the free concentration of one partner at which half of the binding sites on the other are occupied at equilibrium, for simple one-to-one binding. High values mean weaker binding, low ones tighter binding. In data set [1], B1 showed a Kd of 2.6 ± 0.2 µM.

B2: OGG1-Apt 4 (ssDNA)
DNA: AGCAGCACAGAGGTCAGATGGCGAAGCGTACCGGCTACCCAGTGACAGTCGCCGTGGGTCCCTATGCGTGCTACCGTGAA
For the molecule B2, in data set [2], binding was characterised by a dissociation constant (Kd) of 2.8 ± 0.2 µM.

B3: OGG1-Apt 6 (ssDNA)
DNA: AGCAGCACAGAGGTCAGATGCCGATCGTTGTTCCCGATCAAGATGGGGAATCTCAGTCGCCCTATGCGTGCTACCGTGAA
In data set [1], B3 had a dissociation constant (Kd) of 1.8 ± 0.1 µM.

B4: OGG1-Apt 1 (ssDNA)
DNA: AGCAGCACAGAGGTCAGATGGCCACATTAGTCTCACCACTACCTGCGTACCTACCGCCGCCCTATGCGTGCTACCGTGAA
As to B4, the equilibrium dissociation constant (Kd) in data set [1] is 1.7 ± 0.1 µM.
